# Test results from article doi:10.1101/2025.05.27.656346.
# Target: β-gal 4-domain fragment 1-725 (E. coli)
# Assay: negative-stain EM
substance,measurement,value
β-gal 4-domain fragment 1-725 (domain or fragment),stoichiometry N,4
